From PMC5433770, “Effect of N-terminal region of nuclear Drosophila melanogaster small heat shock protein DmHsp27 on function and quaternary structure” (PLoS ONE, 2017) come the findings set out here.

This data set concerns the molecule itself. Briefly: native gel or EMSA; 4–12% gradient native Tris-Glycine gel; samples kept and gel run at room temperature (20°C), 150 V, Coomassie blue stain. (In general: A gel shift assay detects complexes by their altered migration in electrophoresis.)

B1: DmHsp27 with deletion of the first 86 amino acids of the N-terminal region (Del_Nter) (domain or fragment, Drosophila melanogaster, UniProt P02518 87-213, looked up)
chain: KDGFQVCMDVSQFKPNELTVKVVDNTVVVEGKHEEREDGHGMIQRHFVRKYTLPKGFDPNEVVSTVSSDGVLTLKAPPPPSKEQAKSERIVQIQQTGPAHLSVKAPAPEAGDGKAENGSGEKMETSK
notes: DmHsp27 (Hsp27), Drosophila melanogaster, without the first 86 amino acids (N-terminal region); The Del-NTR forward primer carries an ATG before the codon of residue 87, so an added Met probably precedes residue 87 (surmise); also called DmHsp27Del-NTR; source: E. coli BL21 (DE3) pLysS, purified (Ni-NTA, SEC on Superose 6)
As to B1, the binding result is “binds”.

B2: DmHsp27 with deletion of the FGFG motif (29-32) (del_FGFG) (natural protein, Drosophila melanogaster, UniProt P02518 1-213, looked up)
chain: MSIIPLLHLARELDHDYRTDWGHLLEDDVHAHDLFHPRRLLLPNTLGLGRRRYSPYERSHGHHNQMSRRASGGPNALLPAVGKDGFQVCMDVSQFKPNELTVKVVDNTVVVEGKHEEREDGHGMIQRHFVRKYTLPKGFDPNEVVSTVSSDGVLTLKAPPPPSKEQAKSERIVQIQQTGPAHLSVKAPAPEAGDGKAENGSGEKMETSK
notes: DmHsp27 (Hsp27), Drosophila melanogaster, without the four residues F29 to G32 (FGFG); also called deletion FGFG (29–32); DmHsp27Del29-32; source: E. coli BL21 (DE3) pLysS, purified (Ni-NTA, SEC on Superose 6)
With B2, the binding result was “binds”.

B3: Drosophila melanogaster small heat shock protein DmHsp27, wild type (natural protein, UniProt P02518 1-213, looked up)
chain: MSIIPLLHLARELDHDYRTDWGHLLEDDFGFGVHAHDLFHPRRLLLPNTLGLGRRRYSPYERSHGHHNQMSRRASGGPNALLPAVGKDGFQVCMDVSQFKPNELTVKVVDNTVVVEGKHEEREDGHGMIQRHFVRKYTLPKGFDPNEVVSTVSSDGVLTLKAPPPPSKEQAKSERIVQIQQTGPAHLSVKAPAPEAGDGKAENGSGEKMETSK
notes: DmHsp27 (Hsp27), Drosophila melanogaster, wild-type cDNA; also called DmHsp27WT; Drosophila melanogaster Hsp27; source: E. coli BL21 (DE3) pLysS, purified (Ni-NTA, SEC on Superose 6)
Turning to B3, the binding result is listed as “binds”.

B4: DmHsp27 S75A (natural protein, Drosophila melanogaster, UniProt P02518 1-213, looked up)
chain: MSIIPLLHLARELDHDYRTDWGHLLEDDFGFGVHAHDLFHPRRLLLPNTLGLGRRRYSPYERSHGHHNQMSRRAAGGPNALLPAVGKDGFQVCMDVSQFKPNELTVKVVDNTVVVEGKHEEREDGHGMIQRHFVRKYTLPKGFDPNEVVSTVSSDGVLTLKAPPPPSKEQAKSERIVQIQQTGPAHLSVKAPAPEAGDGKAENGSGEKMETSK
notes: DmHsp27 (Hsp27), Drosophila melanogaster, with S75A; source: E. coli BL21 (DE3) pLysS, purified (Ni-NTA, SEC on Superose 6)
For the protein B4, the binding result is reported as “binds”.

B5: DmHsp27 S58/75D (natural protein, Drosophila melanogaster, UniProt P02518 1-213, looked up)
chain: MSIIPLLHLARELDHDYRTDWGHLLEDDFGFGVHAHDLFHPRRLLLPNTLGLGRRRYDPYERSHGHHNQMSRRADGGPNALLPAVGKDGFQVCMDVSQFKPNELTVKVVDNTVVVEGKHEEREDGHGMIQRHFVRKYTLPKGFDPNEVVSTVSSDGVLTLKAPPPPSKEQAKSERIVQIQQTGPAHLSVKAPAPEAGDGKAENGSGEKMETSK
notes: DmHsp27 (Hsp27), Drosophila melanogaster, with S58D and S75D; also called phosphomimetic mutant; source: E. coli BL21 (DE3) pLysS, purified (Ni-NTA, SEC on Superose 6)
Consider B5, for which the binding result was “binds”.

B6: DmHsp27 F29Y (natural protein, Drosophila melanogaster, UniProt P02518 1-213, looked up)
chain: MSIIPLLHLARELDHDYRTDWGHLLEDDYGFGVHAHDLFHPRRLLLPNTLGLGRRRYSPYERSHGHHNQMSRRASGGPNALLPAVGKDGFQVCMDVSQFKPNELTVKVVDNTVVVEGKHEEREDGHGMIQRHFVRKYTLPKGFDPNEVVSTVSSDGVLTLKAPPPPSKEQAKSERIVQIQQTGPAHLSVKAPAPEAGDGKAENGSGEKMETSK
notes: DmHsp27 (Hsp27), Drosophila melanogaster, with F29Y; source: E. coli BL21 (DE3) pLysS, purified (Ni-NTA, SEC on Superose 6)
On to B6, for which the binding result was “binds”.

B7: DmHsp27 S58A (natural protein, Drosophila melanogaster, UniProt P02518 1-213, looked up)
chain: MSIIPLLHLARELDHDYRTDWGHLLEDDFGFGVHAHDLFHPRRLLLPNTLGLGRRRYAPYERSHGHHNQMSRRASGGPNALLPAVGKDGFQVCMDVSQFKPNELTVKVVDNTVVVEGKHEEREDGHGMIQRHFVRKYTLPKGFDPNEVVSTVSSDGVLTLKAPPPPSKEQAKSERIVQIQQTGPAHLSVKAPAPEAGDGKAENGSGEKMETSK
notes: DmHsp27 (Hsp27), Drosophila melanogaster, with S58A; source: E. coli BL21 (DE3) pLysS, purified (Ni-NTA, SEC on Superose 6)
Take B7: the binding result is recorded as “binds”.

B8: DmHsp27 G32A (natural protein, Drosophila melanogaster, UniProt P02518 1-213, looked up)
chain: MSIIPLLHLARELDHDYRTDWGHLLEDDFGFAVHAHDLFHPRRLLLPNTLGLGRRRYSPYERSHGHHNQMSRRASGGPNALLPAVGKDGFQVCMDVSQFKPNELTVKVVDNTVVVEGKHEEREDGHGMIQRHFVRKYTLPKGFDPNEVVSTVSSDGVLTLKAPPPPSKEQAKSERIVQIQQTGPAHLSVKAPAPEAGDGKAENGSGEKMETSK
notes: DmHsp27 (Hsp27), Drosophila melanogaster, with G32A; source: E. coli BL21 (DE3) pLysS, purified (Ni-NTA, SEC on Superose 6)
In the case of B8, the binding result was “binds”.

B9: DmHsp27 F31A (natural protein, Drosophila melanogaster, UniProt P02518 1-213, looked up)
chain: MSIIPLLHLARELDHDYRTDWGHLLEDDFGAGVHAHDLFHPRRLLLPNTLGLGRRRYSPYERSHGHHNQMSRRASGGPNALLPAVGKDGFQVCMDVSQFKPNELTVKVVDNTVVVEGKHEEREDGHGMIQRHFVRKYTLPKGFDPNEVVSTVSSDGVLTLKAPPPPSKEQAKSERIVQIQQTGPAHLSVKAPAPEAGDGKAENGSGEKMETSK
notes: DmHsp27 (Hsp27), Drosophila melanogaster, with F31A; source: E. coli BL21 (DE3) pLysS, purified (Ni-NTA, SEC on Superose 6)
Consider B9, for which the binding result is reported as “binds”.

B10: DmHsp27 G30R (natural protein, Drosophila melanogaster, UniProt P02518 1-213, looked up)
chain: MSIIPLLHLARELDHDYRTDWGHLLEDDFRFGVHAHDLFHPRRLLLPNTLGLGRRRYSPYERSHGHHNQMSRRASGGPNALLPAVGKDGFQVCMDVSQFKPNELTVKVVDNTVVVEGKHEEREDGHGMIQRHFVRKYTLPKGFDPNEVVSTVSSDGVLTLKAPPPPSKEQAKSERIVQIQQTGPAHLSVKAPAPEAGDGKAENGSGEKMETSK
notes: DmHsp27 (Hsp27), Drosophila melanogaster, with G30R; source: E. coli BL21 (DE3) pLysS, purified (Ni-NTA, SEC on Superose 6)
Turning to B10, the binding result is “binds”.

B11: DmHsp27 F31Y (natural protein, Drosophila melanogaster, UniProt P02518 1-213, looked up)
chain: MSIIPLLHLARELDHDYRTDWGHLLEDDFGYGVHAHDLFHPRRLLLPNTLGLGRRRYSPYERSHGHHNQMSRRASGGPNALLPAVGKDGFQVCMDVSQFKPNELTVKVVDNTVVVEGKHEEREDGHGMIQRHFVRKYTLPKGFDPNEVVSTVSSDGVLTLKAPPPPSKEQAKSERIVQIQQTGPAHLSVKAPAPEAGDGKAENGSGEKMETSK
notes: DmHsp27 (Hsp27), Drosophila melanogaster, with F31Y; source: E. coli BL21 (DE3) pLysS, purified (Ni-NTA, SEC on Superose 6)
On to B11, for which the binding result is recorded as “binds”.

B12: DmHsp27 F29A (natural protein, Drosophila melanogaster, UniProt P02518 1-213, looked up)
chain: MSIIPLLHLARELDHDYRTDWGHLLEDDAGFGVHAHDLFHPRRLLLPNTLGLGRRRYSPYERSHGHHNQMSRRASGGPNALLPAVGKDGFQVCMDVSQFKPNELTVKVVDNTVVVEGKHEEREDGHGMIQRHFVRKYTLPKGFDPNEVVSTVSSDGVLTLKAPPPPSKEQAKSERIVQIQQTGPAHLSVKAPAPEAGDGKAENGSGEKMETSK
notes: DmHsp27 (Hsp27), Drosophila melanogaster, with F29A; source: E. coli BL21 (DE3) pLysS, purified (Ni-NTA, SEC on Superose 6)
For the protein B12, the binding result is given as “binds”.

B13: DmHsp27 S58/75A (natural protein, Drosophila melanogaster, UniProt P02518 1-213, looked up)
chain: MSIIPLLHLARELDHDYRTDWGHLLEDDFGFGVHAHDLFHPRRLLLPNTLGLGRRRYAPYERSHGHHNQMSRRAAGGPNALLPAVGKDGFQVCMDVSQFKPNELTVKVVDNTVVVEGKHEEREDGHGMIQRHFVRKYTLPKGFDPNEVVSTVSSDGVLTLKAPPPPSKEQAKSERIVQIQQTGPAHLSVKAPAPEAGDGKAENGSGEKMETSK
notes: DmHsp27 (Hsp27), Drosophila melanogaster, with S58A and S75A; source: E. coli BL21 (DE3) pLysS, purified (Ni-NTA, SEC on Superose 6)
Regarding B13, the binding result is “binds”.

B14: DmHsp27 G32R (natural protein, Drosophila melanogaster, UniProt P02518 1-213, looked up)
chain: MSIIPLLHLARELDHDYRTDWGHLLEDDFGFRVHAHDLFHPRRLLLPNTLGLGRRRYSPYERSHGHHNQMSRRASGGPNALLPAVGKDGFQVCMDVSQFKPNELTVKVVDNTVVVEGKHEEREDGHGMIQRHFVRKYTLPKGFDPNEVVSTVSSDGVLTLKAPPPPSKEQAKSERIVQIQQTGPAHLSVKAPAPEAGDGKAENGSGEKMETSK
notes: DmHsp27 (Hsp27), Drosophila melanogaster, with G32R; source: E. coli BL21 (DE3) pLysS, purified (Ni-NTA, SEC on Superose 6)
In the case of B14, the binding result is “binds”.

B15: DmHsp27 S75D (natural protein, Drosophila melanogaster, UniProt P02518 1-213, looked up)
chain: MSIIPLLHLARELDHDYRTDWGHLLEDDFGFGVHAHDLFHPRRLLLPNTLGLGRRRYSPYERSHGHHNQMSRRADGGPNALLPAVGKDGFQVCMDVSQFKPNELTVKVVDNTVVVEGKHEEREDGHGMIQRHFVRKYTLPKGFDPNEVVSTVSSDGVLTLKAPPPPSKEQAKSERIVQIQQTGPAHLSVKAPAPEAGDGKAENGSGEKMETSK
notes: DmHsp27 (Hsp27), Drosophila melanogaster, with S75D; also called phosphomimetic mutant; source: E. coli BL21 (DE3) pLysS, purified (Ni-NTA, SEC on Superose 6)
In the case of B15, the binding result is given as “binds”.

B16: DmHsp27 G30A (natural protein, Drosophila melanogaster, UniProt P02518 1-213, looked up)
chain: MSIIPLLHLARELDHDYRTDWGHLLEDDFAFGVHAHDLFHPRRLLLPNTLGLGRRRYSPYERSHGHHNQMSRRASGGPNALLPAVGKDGFQVCMDVSQFKPNELTVKVVDNTVVVEGKHEEREDGHGMIQRHFVRKYTLPKGFDPNEVVSTVSSDGVLTLKAPPPPSKEQAKSERIVQIQQTGPAHLSVKAPAPEAGDGKAENGSGEKMETSK
notes: DmHsp27 (Hsp27), Drosophila melanogaster, with G30A; source: E. coli BL21 (DE3) pLysS, purified (Ni-NTA, SEC on Superose 6)
As for B16, the binding result is listed as “binds”.

B17: DmHsp27 S58D (natural protein, Drosophila melanogaster, UniProt P02518 1-213, looked up)
chain: MSIIPLLHLARELDHDYRTDWGHLLEDDFGFGVHAHDLFHPRRLLLPNTLGLGRRRYDPYERSHGHHNQMSRRASGGPNALLPAVGKDGFQVCMDVSQFKPNELTVKVVDNTVVVEGKHEEREDGHGMIQRHFVRKYTLPKGFDPNEVVSTVSSDGVLTLKAPPPPSKEQAKSERIVQIQQTGPAHLSVKAPAPEAGDGKAENGSGEKMETSK
notes: DmHsp27 (Hsp27), Drosophila melanogaster, with S58D; also called phosphomimetic mutant; source: E. coli BL21 (DE3) pLysS, purified (Ni-NTA, SEC on Superose 6)
With B17, the binding result was “binds”.
